B1: DLC1 (parent)
chain: HVTHWMGQPFNSDDRNTACHHGLV

Variants of: B1
Assay: protein stability index of a GFP-peptide fusion (GPS, HEK-293T) (PSI 1-6); higher = more stable
Conditions: c terminus: a fixed tail appended
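Also: lentivirally expressed fusions sorted by FACS into six bins by GFP to DsRed ratio, PSI derived from sequencing read proportions per bin multiplied by bin number.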

Row | Variant | protein stability index
1 | HVTHWMGQPFNSYDRNTACHHGLV | 2.26
2 | HVTHWMGQPFNSDARNTACHHGLV | 1.9
3 | HVTHWMGQPFNSDCRNTACHHGLV | 1.68
4 | HVTHWMGQPFNSDERNTACHHGLV | 1.7
5 | HVTHWMGQPFNSDFRNTACHHGLV | 2.35
6 | HVTHWMGQPFNSDGRNTACHHGLV | 1.86
7 | HVTHWMGQPFNSDHRNTACHHGLV | 2.66
8 | HVTHWMGQPFNSDIRNTACHHGLV | 1.53
9 | HVTHWMGQPFNSDKRNTACHHGLV | 1.47
10 | HVTHWMGQPFNSDLRNTACHHGLV | 1.31
11 | HVTHWMGQPFNSDMRNTACHHGLV | 1.64
12 | HVTHWMGQPFNSDNRNTACHHGLV | 1.86
13 | HVTHWMGQPFNSDPRNTACHHGLV | 2.16
14 | HVTHWMGQPFNSDQRNTACHHGLV | 2.31
15 | HVTHWMGQPFNSDRRNTACHHGLV | 2.01
16 | HVTHWMGQPFNSDSRNTACHHGLV | 1.83
17 | HVTHWMGQPFNSDTRNTACHHGLV | 1.99
18 | HVTHWMGQPFNSDVRNTACHHGLV | 1.71
19 | HVTHWMGQPFNSDWRNTACHHGLV | 1.65
20 | HVTHWMGQPFNSDYRNTACHHGLV | 1.44
21 | HVTHWMGQPFNSDDANTACHHGLV | 2.22
22 | HVTHWMGQPFNSDDCNTACHHGLV | 1.99
23 | HVTHWMGQPFNSDDDNTACHHGLV | 2.23
24 | HVTHWMGQPFNSDDENTACHHGLV | 2.32

Row | Variant | protein stability index
25 | HVTHWMGQPFNSDDFNTACHHGLV | 2.25
26 | HVTHWMGQPFNSDDGNTACHHGLV | 1.94
27 | HVTHWMGQPFNSDDHNTACHHGLV | 2.06
28 | HVTHWMGQPFNSDDINTACHHGLV | 1.95
29 | HVTHWMGQPFNSDDKNTACHHGLV | 2.11
30 | HVTHWMGQPFNSDDLNTACHHGLV | 2.29
31 | HVTHWMGQPFNSDDMNTACHHGLV | 1.83
32 | HVTHWMGQPFNSDDNNTACHHGLV | 2.38
33 | HVTHWMGQPFNSDDPNTACHHGLV | 1.82
34 | HVTHWMGQPFNSDDQNTACHHGLV | 2.01
35 | HVTHWMGQPFNSDDSNTACHHGLV | 2.4
36 | HVTHWMGQPFNSDDTNTACHHGLV | 2.31
37 | HVTHWMGQPFNSDDVNTACHHGLV | 2.11
38 | HVTHWMGQPFNSDDWNTACHHGLV | 1.73
39 | HVTHWMGQPFNSDDYNTACHHGLV | 1.74
40 | HVTHWMGQPFNSDDRATACHHGLV | 1.75
41 | HVTHWMGQPFNSDDRCTACHHGLV | 2.54
42 | HVTHWMGQPFNSDDRDTACHHGLV | 2.35
43 | HVTHWMGQPFNSDDRETACHHGLV | 2.35
44 | HVTHWMGQPFNSDDRFTACHHGLV | 1.92
45 | HVTHWMGQPFNSDDRGTACHHGLV | 1.97
46 | HVTHWMGQPFNSDDRHTACHHGLV | 2.43
47 | HVTHWMGQPFNSDDRITACHHGLV | 2.13
48 | HVTHWMGQPFNSDDRKTACHHGLV | 1.98

Row | Variant | protein stability index
49 | HVTHWMGQPFNSDDRLTACHHGLV | 1.8
50 | HVTHWMGQPFNSDDRMTACHHGLV | 1.76
51 | HVTHWMGQPFNSDDRPTACHHGLV | 1.64
52 | HVTHWMGQPFNSDDRQTACHHGLV | 2.67
53 | HVTHWMGQPFNSDDRRTACHHGLV | 2.16
54 | HVTHWMGQPFNSDDRSTACHHGLV | 1.81
55 | HVTHWMGQPFNSDDRTTACHHGLV | 1.99
56 | HVTHWMGQPFNSDDRVTACHHGLV | 1.22
57 | HVTHWMGQPFNSDDRWTACHHGLV | 1.3
58 | HVTHWMGQPFNSDDRYTACHHGLV | 2.32
59 | HVTHWMGQPFNSDDRNAACHHGLV | 1.99
60 | HVTHWMGQPFNSDDRNCACHHGLV | 1.66
61 | HVTHWMGQPFNSDDRNDACHHGLV | 2.65
62 | HVTHWMGQPFNSDDRNEACHHGLV | 2.32
63 | HVTHWMGQPFNSDDRNFACHHGLV | 2.06
64 | HVTHWMGQPFNSDDRNGACHHGLV | 2.04
65 | HVTHWMGQPFNSDDRNHACHHGLV | 2.23
66 | HVTHWMGQPFNSDDRNIACHHGLV | 2.25
67 | HVTHWMGQPFNSDDRNKACHHGLV | 2.01
68 | HVTHWMGQPFNSDDRNLACHHGLV | 1.68
69 | HVTHWMGQPFNSDDRNMACHHGLV | 1.72
70 | HVTHWMGQPFNSDDRNNACHHGLV | 2.21
71 | HVTHWMGQPFNSDDRNPACHHGLV | 2.17
72 | HVTHWMGQPFNSDDRNQACHHGLV | 2.38

Row | Variant | protein stability index
73 | HVTHWMGQPFNSDDRNRACHHGLV | 1.99
74 | HVTHWMGQPFNSDDRNSACHHGLV | 2.36
75 | HVTHWMGQPFNSDDRNVACHHGLV | 2.1
76 | HVTHWMGQPFNSDDRNWACHHGLV | 1.82
77 | HVTHWMGQPFNSDDRNYACHHGLV | 1.86
78 | HVTHWMGQPFNSDDRNTCCHHGLV | 1.83
79 | HVTHWMGQPFNSDDRNTDCHHGLV | 2.69
80 | HVTHWMGQPFNSDDRNTECHHGLV | 2.53
81 | HVTHWMGQPFNSDDRNTFCHHGLV | 2.24
82 | HVTHWMGQPFNSDDRNTGCHHGLV | 2.06
83 | HVTHWMGQPFNSDDRNTHCHHGLV | 2.25
84 | HVTHWMGQPFNSDDRNTICHHGLV | 1.76
85 | HVTHWMGQPFNSDDRNTKCHHGLV | 1.94
86 | HVTHWMGQPFNSDDRNTLCHHGLV | 1.56
87 | HVTHWMGQPFNSDDRNTMCHHGLV | 2.11
88 | HVTHWMGQPFNSDDRNTNCHHGLV | 2.44
89 | HVTHWMGQPFNSDDRNTPCHHGLV | 1.94
90 | HVTHWMGQPFNSDDRNTQCHHGLV | 2.47
91 | HVTHWMGQPFNSDDRNTRCHHGLV | 2
92 | HVTHWMGQPFNSDDRNTSCHHGLV | 2.21
93 | HVTHWMGQPFNSDDRNTTCHHGLV | 2.09
94 | HVTHWMGQPFNSDDRNTVCHHGLV | 2.33
95 | HVTHWMGQPFNSDDRNTWCHHGLV | 1.88
96 | HVTHWMGQPFNSDDRNTYCHHGLV | 2.37

Row | Variant | protein stability index
97 | HVTHWMGQPFNSDDRNTAAHHGLV | 2.5
98 | HVTHWMGQPFNSDDRNTADHHGLV | 2.68
99 | HVTHWMGQPFNSDDRNTAEHHGLV | 2.92
100 | HVTHWMGQPFNSDDRNTAFHHGLV | 1.25
101 | HVTHWMGQPFNSDDRNTAGHHGLV | 1.96
102 | HVTHWMGQPFNSDDRNTAHHHGLV | 2.13
103 | HVTHWMGQPFNSDDRNTAIHHGLV | 2.4
104 | HVTHWMGQPFNSDDRNTAKHHGLV | 2.2
105 | HVTHWMGQPFNSDDRNTALHHGLV | 2.02
106 | HVTHWMGQPFNSDDRNTAMHHGLV | 2.31
107 | HVTHWMGQPFNSDDRNTANHHGLV | 2.43
108 | HVTHWMGQPFNSDDRNTAPHHGLV | 2.43
109 | HVTHWMGQPFNSDDRNTAQHHGLV | 2.61
110 | HVTHWMGQPFNSDDRNTARHHGLV | 2.4
111 | HVTHWMGQPFNSDDRNTASHHGLV | 2.41
112 | HVTHWMGQPFNSDDRNTATHHGLV | 2.61
113 | HVTHWMGQPFNSDDRNTAVHHGLV | 2.04
114 | HVTHWMGQPFNSDDRNTAWHHGLV | 1.48
115 | HVTHWMGQPFNSDDRNTAYHHGLV | 1.8
116 | HVTHWMGQPFNSDDRNTACAHGLV | 2.37
117 | HVTHWMGQPFNSDDRNTACCHGLV | 2.25
118 | HVTHWMGQPFNSDDRNTACDHGLV | 2.36
119 | HVTHWMGQPFNSDDRNTACEHGLV | 2.44
120 | HVTHWMGQPFNSDDRNTACFHGLV | 2.3

Row | Variant | protein stability index
121 | HVTHWMGQPFNSDDRNTACGHGLV | 2.16
122 | HVTHWMGQPFNSDDRNTACIHGLV | 2.13
123 | HVTHWMGQPFNSDDRNTACKHGLV | 2.41
124 | HVTHWMGQPFNSDDRNTACLHGLV | 1.6
125 | HVTHWMGQPFNSDDRNTACMHGLV | 1.79
126 | HVTHWMGQPFNSDDRNTACNHGLV | 2.2
127 | HVTHWMGQPFNSDDRNTACPHGLV | 2.5
128 | HVTHWMGQPFNSDDRNTACQHGLV | 2.46
129 | HVTHWMGQPFNSDDRNTACRHGLV | 2.25
130 | HVTHWMGQPFNSDDRNTACSHGLV | 2.25
131 | HVTHWMGQPFNSDDRNTACTHGLV | 2.25
132 | HVTHWMGQPFNSDDRNTACVHGLV | 2.34
133 | HVTHWMGQPFNSDDRNTACWHGLV | 2.46
134 | HVTHWMGQPFNSDDRNTACYHGLV | 2.16
135 | HVTHWMGQPFNSDDRNTACHAGLV | 2.38
136 | HVTHWMGQPFNSDDRNTACHCGLV | 2.69
137 | HVTHWMGQPFNSDDRNTACHDGLV | 2.58
138 | HVTHWMGQPFNSDDRNTACHEGLV | 2.51
139 | HVTHWMGQPFNSDDRNTACHFGLV | 1.64
140 | HVTHWMGQPFNSDDRNTACHGGLV | 2.37
141 | HVTHWMGQPFNSDDRNTACHIGLV | 1.85
142 | HVTHWMGQPFNSDDRNTACHKGLV | 2.7
143 | HVTHWMGQPFNSDDRNTACHLGLV | 1.93
144 | HVTHWMGQPFNSDDRNTACHMGLV | 2.21

Row | Variant | protein stability index
145 | HVTHWMGQPFNSDDRNTACHNGLV | 2.66
146 | HVTHWMGQPFNSDDRNTACHPGLV | 1.95
147 | HVTHWMGQPFNSDDRNTACHQGLV | 2.44
148 | HVTHWMGQPFNSDDRNTACHRGLV | 2.26
149 | HVTHWMGQPFNSDDRNTACHSGLV | 2.23
150 | HVTHWMGQPFNSDDRNTACHTGLV | 2.02
151 | HVTHWMGQPFNSDDRNTACHVGLV | 1.9
152 | HVTHWMGQPFNSDDRNTACHWGLV | 1.69
153 | HVTHWMGQPFNSDDRNTACHYGLV | 1.85
154 | HVTHWMGQPFNSDDRNTACHHALV | 2.49
155 | HVTHWMGQPFNSDDRNTACHHCLV | 2.17
156 | HVTHWMGQPFNSDDRNTACHHDLV | 2.29
157 | HVTHWMGQPFNSDDRNTACHHELV | 2.59
158 | HVTHWMGQPFNSDDRNTACHHFLV | 1.57
159 | HVTHWMGQPFNSDDRNTACHHHLV | 1.99
160 | HVTHWMGQPFNSDDRNTACHHILV | 1.34
161 | HVTHWMGQPFNSDDRNTACHHKLV | 2
162 | HVTHWMGQPFNSDDRNTACHHLLV | 2.23
163 | HVTHWMGQPFNSDDRNTACHHMLV | 1.96
164 | HVTHWMGQPFNSDDRNTACHHNLV | 1.99
165 | HVTHWMGQPFNSDDRNTACHHPLV | 2.05
166 | HVTHWMGQPFNSDDRNTACHHQLV | 2.1
167 | HVTHWMGQPFNSDDRNTACHHRLV | 2.13
168 | HVTHWMGQPFNSDDRNTACHHSLV | 1.93

Row | Variant | protein stability index
169 | HVTHWMGQPFNSDDRNTACHHTLV | 2.1
170 | HVTHWMGQPFNSDDRNTACHHVLV | 1.89
171 | HVTHWMGQPFNSDDRNTACHHWLV | 2.38
172 | HVTHWMGQPFNSDDRNTACHHYLV | 1.6
173 | HVTHWMGQPFNSDDRNTACHHGAV | 2.51
174 | HVTHWMGQPFNSDDRNTACHHGCV | 1.99
175 | HVTHWMGQPFNSDDRNTACHHGDV | 2.84
176 | HVTHWMGQPFNSDDRNTACHHGEV | 2.75
177 | HVTHWMGQPFNSDDRNTACHHGFV | 2.02
178 | HVTHWMGQPFNSDDRNTACHHGGV | 2.49
179 | HVTHWMGQPFNSDDRNTACHHGHV | 2.46
180 | HVTHWMGQPFNSDDRNTACHHGIV | 1.92
181 | HVTHWMGQPFNSDDRNTACHHGKV | 2.27
182 | HVTHWMGQPFNSDDRNTACHHGMV | 2.13
183 | HVTHWMGQPFNSDDRNTACHHGNV | 2.37
184 | HVTHWMGQPFNSDDRNTACHHGPV | 2.17
185 | HVTHWMGQPFNSDDRNTACHHGQV | 2.38
186 | HVTHWMGQPFNSDDRNTACHHGRV | 2.47
187 | HVTHWMGQPFNSDDRNTACHHGSV | 2.24
188 | HVTHWMGQPFNSDDRNTACHHGTV | 2.26
